Results as given in paper PMC314469, “Protein Interaction Networks by Proteome Peptide Scanning” (PLoS Biology, 2004).

T1: Yfr024 SH3 (LSB3_YEAST), P43603
T1 chain: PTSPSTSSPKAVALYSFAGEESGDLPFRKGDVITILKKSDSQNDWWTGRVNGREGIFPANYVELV

T2: Yhr016c SH3 (YSC84_YEAST), P32793
T2 chain: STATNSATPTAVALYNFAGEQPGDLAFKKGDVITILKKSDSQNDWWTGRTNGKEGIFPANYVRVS

T3: Boi1 SH3 (BOI1_YEAST), P38041
T3 chain: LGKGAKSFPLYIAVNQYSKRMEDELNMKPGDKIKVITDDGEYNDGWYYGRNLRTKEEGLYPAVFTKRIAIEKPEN

T4: Boi2 SH3 (BOI2_YEAST), P39969
T4 chain: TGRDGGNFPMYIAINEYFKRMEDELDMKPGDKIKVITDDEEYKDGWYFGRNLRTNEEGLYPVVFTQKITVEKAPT

T5: Myo5 SH3 (MYO5_YEAST), Q04439
T5 chain: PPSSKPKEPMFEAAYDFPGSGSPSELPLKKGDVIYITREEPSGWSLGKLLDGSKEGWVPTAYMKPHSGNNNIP

T6: Rvs167 SH3 (RV167_YEAST), P39743
T6 chain: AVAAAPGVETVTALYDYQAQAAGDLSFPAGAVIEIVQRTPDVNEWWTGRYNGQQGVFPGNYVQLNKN


Biological target: T1, Yfr024 SH3 (LSB3_YEAST), P43603
Assay: SPOT array

| Binder | normalised SPOT signal, Boehringer light units (BLU); mean over the file's lines of this peptide |
| --- | --- |
| NNSTRPIPAIPMDL [YJL133W 8-21] | 39600 |
| NLYQRTTPAGPDPS [YOL019W 467-480] | 389 |
| NLKTKSHPEVPRLD [YLR189C 152-165] | 327 |
| NLSLRYAPNLPPVI [YHL035C 1327-1340] | 154 |
| NITEKSPPKSPKHK [YDR543C 77-90] | 187 |
| NPIPKSVPLHPKSG [YEL019C 6-19] | 88.1 |
| NIPTKSPPKSPKHK [YLL065W 94-107] | 518 |
| NKIPKHLPADPIFS [YCR032W 1499-1512] | 835 |
| NKPKRKRPAPPKKK [YFR013W 78-91] | 568 |
| NPMQKPVPFVPVLD [YKL182W 1009-1022] | 2450 |
| NNLKKRPPTAPQRK [YPR171W 465-478] | 6960 |
| NPFVRINPNRPEAA [YBR136W 500-513] | 344 |

Biological target: T2, Yhr016c SH3 (YSC84_YEAST), P32793
Assay: SPOT array

| Binder | normalised SPOT signal, Boehringer light units (BLU); mean over the file's lines of this peptide |
| --- | --- |
| NNSTRPIPAIPMDL [YJL133W 8-21] | 44100 |
| NLYQRTTPAGPDPS [YOL019W 467-480] | 1140 |
| NLKTKSHPEVPRLD [YLR189C 152-165] | 2740 |
| NLSLRYAPNLPPVI [YHL035C 1327-1340] | 135 |
| NITEKSPPKSPKHK [YDR543C 77-90] | 110 |
| NPIPKSVPLHPKSG [YEL019C 6-19] | 467 |
| NIPTKSPPKSPKHK [YLL065W 94-107] | 198 |
| NKIPKHLPADPIFS [YCR032W 1499-1512] | 90.5 |
| NKPKRKRPAPPKKK [YFR013W 78-91] | 81.6 |
| NPMQKPVPFVPVLD [YKL182W 1009-1022] | 299 |
| NNLKKRPPTAPQRK [YPR171W 465-478] | 4310 |
| NPFVRINPNRPEAA [YBR136W 500-513] | 73.5 |

Biological target: T3, Boi1 SH3 (BOI1_YEAST), P38041
Assay: SPOT array

| Binder | normalised SPOT signal, Boehringer light units (BLU); mean over the file's lines of this peptide |
| --- | --- |
| NNSTRPIPAIPMDL [YJL133W 8-21] | 203 |
| NLYQRTTPAGPDPS [YOL019W 467-480] | 585 |
| NLKTKSHPEVPRLD [YLR189C 152-165] | 426 |
| NLSLRYAPNLPPVI [YHL035C 1327-1340] | 360 |
| NITEKSPPKSPKHK [YDR543C 77-90] | 3420 |
| NPIPKSVPLHPKSG [YEL019C 6-19] | 225 |
| NIPTKSPPKSPKHK [YLL065W 94-107] | 743 |
| NKIPKHLPADPIFS [YCR032W 1499-1512] | 187 |
| NKPKRKRPAPPKKK [YFR013W 78-91] | 635 |
| NPMQKPVPFVPVLD [YKL182W 1009-1022] | 66.8 |
| NNLKKRPPTAPQRK [YPR171W 465-478] | 2270 |
| NPFVRINPNRPEAA [YBR136W 500-513] | 444 |

biological target: Sho1 SH3 (SHO1_YEAST), P40073; assay: SPOT array
Sequence (P40073 295-366): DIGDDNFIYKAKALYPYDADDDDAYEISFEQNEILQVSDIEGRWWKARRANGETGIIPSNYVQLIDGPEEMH

| Binder | normalised SPOT signal, Boehringer light units (BLU); mean over the file's lines of this peptide |
| --- | --- |
| MVTPSKPPKKSVGF [147-160 Hypothetical ORF] | 749 |
| NNSTRPIPAIPMDL [YJL133W 8-21] | 1770 |
| MVRPAPPRRADPEG [11-24 Hypothetical ORF] | 608 |
| NLYQRTTPAGPDPS [YOL019W 467-480] | 60.6 |
| NLKTKSHPEVPRLD [YLR189C 152-165] | 104 |
| NLSLRYAPNLPPVI [YHL035C 1327-1340] | 40.5 |
| NITEKSPPKSPKHK [YDR543C 77-90] | 74.8 |
| NPIPKSVPLHPKSG [YEL019C 6-19] | 28.7 |
| NIPTKSPPKSPKHK [YLL065W 94-107] | 53 |
| NKIPKHLPADPIFS [YCR032W 1499-1512] | 67.2 |
| NKPKRKRPAPPKKK [YFR013W 78-91] | 88.2 |
| NAPPYVPQRSKQPD [165-178 " Radiation repair protein, putative DNA helicase"] | 143 |
| NDDPVIPYKLSKDT [1037-1050 DNA replication helicase] | 201 |
| NPMQKPVPFVPVLD [YKL182W 1009-1022] | 191 |
| NNLKKRPPTAPQRK [YPR171W 465-478] | 64.6 |
| NHIPPFPLRFSFAQ [532-545 Hypothetical ORF] | 184 |
| NEYPSKPPKVKFPA [66-79 ubiquitin-conjugating enzyme] | 330 |
| NPFVRINPNRPEAA [YBR136W 500-513] | 35.9 |
| NANPFLPNKHPVTQ [38-51 Mitochondrial ribosomal protein MRPL25 (YmL25)] | 210 |

Biological target: T4, Boi2 SH3 (BOI2_YEAST), P39969
Assay: SPOT array

| Binder | normalised SPOT signal, Boehringer light units (BLU); mean over the file's lines of this peptide |
| --- | --- |
| NNSTRPIPAIPMDL [YJL133W 8-21] | 20.8 |
| NLYQRTTPAGPDPS [YOL019W 467-480] | 126 |
| NLKTKSHPEVPRLD [YLR189C 152-165] | 142 |
| NLSLRYAPNLPPVI [YHL035C 1327-1340] | 25.4 |
| NITEKSPPKSPKHK [YDR543C 77-90] | 18.7 |
| NPIPKSVPLHPKSG [YEL019C 6-19] | 7.9 |
| NIPTKSPPKSPKHK [YLL065W 94-107] | 1.2 |
| NKIPKHLPADPIFS [YCR032W 1499-1512] | 21 |
| NKPKRKRPAPPKKK [YFR013W 78-91] | 22.9 |
| NPMQKPVPFVPVLD [YKL182W 1009-1022] | 50.2 |
| NNLKKRPPTAPQRK [YPR171W 465-478] | 152 |
| NPFVRINPNRPEAA [YBR136W 500-513] | 47.2 |

Biological target: T5, Myo5 SH3 (MYO5_YEAST), Q04439
Assay: SPOT array

| Binder | normalised SPOT signal, Boehringer light units (BLU); mean over the file's lines of this peptide |
| --- | --- |
| NNSTRPIPAIPMDL [YJL133W 8-21] | 247 |
| NLYQRTTPAGPDPS [YOL019W 467-480] | 114 |
| NLKTKSHPEVPRLD [YLR189C 152-165] | 363 |
| NLSLRYAPNLPPVI [YHL035C 1327-1340] | 779 |
| NITEKSPPKSPKHK [YDR543C 77-90] | 292 |
| NPIPKSVPLHPKSG [YEL019C 6-19] | 364 |
| NIPTKSPPKSPKHK [YLL065W 94-107] | 12500 |
| NKIPKHLPADPIFS [YCR032W 1499-1512] | 278 |
| NKPKRKRPAPPKKK [YFR013W 78-91] | 872 |
| NPMQKPVPFVPVLD [YKL182W 1009-1022] | 420 |
| NNLKKRPPTAPQRK [YPR171W 465-478] | 419 |
| NPFVRINPNRPEAA [YBR136W 500-513] | 276 |

Biological target: T6, Rvs167 SH3 (RV167_YEAST), P39743
Assay: SPOT array

| Binder | normalised SPOT signal, Boehringer light units (BLU); mean over the file's lines of this peptide |
| --- | --- |
| NNSTRPIPAIPMDL [YJL133W 8-21] | 58900 |
| NLYQRTTPAGPDPS [YOL019W 467-480] | 344 |
| NLKTKSHPEVPRLD [YLR189C 152-165] | 1080 |
| NLSLRYAPNLPPVI [YHL035C 1327-1340] | 216 |
| NITEKSPPKSPKHK [YDR543C 77-90] | 124 |
| NPIPKSVPLHPKSG [YEL019C 6-19] | 7.3 |
| NIPTKSPPKSPKHK [YLL065W 94-107] | 64.5 |
| NKIPKHLPADPIFS [YCR032W 1499-1512] | 67.8 |
| NKPKRKRPAPPKKK [YFR013W 78-91] | 83.6 |
| NPMQKPVPFVPVLD [YKL182W 1009-1022] | 284 |
| NNLKKRPPTAPQRK [YPR171W 465-478] | 6090 |
| NPFVRINPNRPEAA [YBR136W 500-513] | 56.6 |
